In patent US20250303000A1, “COMPOSITIONS AND METHODS FOR INDUCIBLE ALTERNATIVE SPLICING REGULATION OF GENE EXPRESSION” (THE CHILDREN'S HOSPITAL OF PHILADELPHIA, priority 2022, published 2025):

B1: miniXS3B: miniX^on cassette with optimized Kozak/ATG and cryptic splicing sites eliminated; SEQ ID NO: 1 (nucleic acid)
DNA: TTTAAACAAGCTTGGCAATCCGGTACTGTTGGTAAATTTCTCTACAACTTAACCTTACAGAGAGCCACTGGCTTCAGCTTTGCCTTTCTTGGTAACTTTTCTGGTAAGTTCTCTCGTTACCATCTTTTGAAATTTTAAGTGAATTAATACATATCTTGCTTAATCTCTTGTGCAAAAAATGTTTTCCATTTATGACAAAACAAAAATTGTGTGAAATTTCAAATATTGGATTAGGAAATACAAAGTTACTGAAAGTGAGGTACTAATGTTTATAAAATAAAAACTTTTTCTTGCCATTTGCAGATTAACATTTTTGAGTCAATCCAAGTGCCACCATGGAAAAAGTTCATGATTGTGTAGAGTAAGACATAATTTTGTTGAAATTTAACTCTGAATACTTAATGTGGTACTGAATACTTAATGTGGTACTGAGAAGCAGCCTAACTGACCACACAACATTCCACGCCTGGCTAATTTTTGTATTTTTAATAAAAACGGGGTTTCACCATGGTGGCCGGGCTGGTTCTGGTTGTTTATGATCTTTATTTTTTGGTGATCTAGGAACCAAACAACAAAAAATTGTTGTTTCCCGTGGGTCGGATCC
modifications: SF3B3.miniXS3B (m3B; miniXS3B; XS3B)
B2: miniXS3B2: miniX^on cassette with optimized Kozak/ATG and cryptic splicing sites eliminated; SEQ ID NO: 2 (nucleic acid)
DNA: GTTTAAACAAGCTTGGCAATCCGGTACTGTTGGTAAATTTCTCTACAACTTAACCTTACAGAGAGCCACTGGCTTCAGCTTTGCCTTTCTTGGTAACTTTTCTGGTAAGTTCTCTCGTTACCATCTTTTGAAATTTTAAATGAATTAATACATATCTTGCTTAATCTCTTGTGCAAAAAATGTTTTCCATTTATGACAAAACAAAAATTGTGTGAAATTTCAAATATTGGATTAAAAAATACAAAGTTACGGAAAATGAGGTACTAATGTTTATAAAATAAAAACTTTTTCTTGCCATTTGCAGATTAACATTTTTGAGTCAATCCAAGTGCCACCATGGAAAAAGTTCATGATTGTGTAGAGTAAGACATAATTTTGTTGAAATTTAACTCTGAATACTTAATGTGGTACTGAATACTTAATGTGGTACTGAGAAGCAGCCTAACTGACCACACAACATTCCACGCCTGGCTAATTTTTGTATTTTTAATAAAAACGGGGTTTCACCATGGTGGCCGGGCTGGTTCTGGTTGTTTATGATCTTTATTTTTTGGTGATCTAGGAACCAAACAACAAAAAATTGTTGTTTCCCGTGGGTCGGATCC
modifications: SF3B3.miniXS3B2 (m3B2; miniXS3B2; XS3B2)

Assays:
loxP-STOP cassette = assay: In vivo gene editing in liver of Ai14 mice (FACS, histology, genomic DNA PCR, Sanger sequencing); conditions: LMI070 50 mg kg-1, 7 days after LMI070
Source text: FIGS. 1A-1H. Generation of the miniXon cassette and assessment of miniXon control of SaCas9 for in vivo gene editing in liver. a, Cartoon depicting the AAV genome size with the SF3B3-Xon and SF3B3-miniXon cassettes. b, Luciferase induction in HEK293 cells transfected with SF3B3-miniXon-luciferase or SF3B3-Xon-luciferase in response to varying doses of LMI070. All samples are normalized to Renilla luciferase activity and are relative to DMSO treated cells. Data are the mean±s.e.m. of 8 biological replicates (***P<0.001 versus SF3B3.Xon, two-way ANOVA followed by Bonferroni's post hoc test). c, Splicing inclusion assays of the LMI070-induced exon at 100 nM LMI070. Pseudo exon inclusion in the Xon cassette was detected using primers flanking the pseudoexon (left) or by priming within the novel exon sequence (right; 4 technical replicates). d, Experimental design. […]
The inventors have previously developed switch-on cassettes from LMI070-responsive exons, including from the minimal intronic intervening sequences necessary to recapitulate splicing of pseudoexons in SF3B3 (SF3B3.X^on; X^on). […] AAV8-miniX^on-SaCas9 plus single-guide RNAs targeting the loxP-STOP sequence in Ai14 mice were administered intravenously; after several weeks, LMI070 was administered and gene editing was assessed 7 days later (FIG. 1D). […]

SaCas9 = SaCas9 protein levels by western blot in HEK293 cells treated with DMSO or LMI070; type: cell-based, human; conditions: for SaCas9 protein level, DMSO treated cells / SaCas9 protein induction after LMI070 treatment: 24 h; for SaCas9 protein levels relative to SF3B3.miniXon cassette / SaCas9 protein induction after LMI070 treatment: LMI070 (100 nM)
Protocol: FIG. 3. Comparison of the miniX^on (miX^on), SF3B3.miniXS3B (m3B), and SF3B3.miniXS3B2 (m3B2) systems for HD editing control. (top) Cartoon depicting X^on splicing system for controlling Cas9 protein translation in response to LMI070. (middle, bottom) Bicistronic plasmids containing Xon.SaCas9 or miniXon.SaCas9 expression cassette together with a CMVeGFP expression cassettes were transfected in HEK293 cells and treated with DMSO (middle) or LMI070 (100 nM) (bottom) and Cas9 protein levels were determined by western blot 24 h later. eGFP proteins served as transfection control. Western blot is representative of 4 biological replicates.
While gene editing approaches provide an enormous opportunity for altering or removing disease alleles, prolonged expression of the editing machinery from viral vectors could be problematic. The editing enzymes are foreign proteins and may induce immune responses, and prolonged gene expression would increase opportunities for off-target editing (Charlesworth et al., 2019; Vakulskas et al., 2018). To test the efficacy of SF3B3.miXS3B and SF3B3.miXS3B2 to control translation of CRISPR effector proteins, SF3B3.miXS3B and SF3B3.miXS3B2-SaCas9-CRISPR expression cassettes were generated and SaCas9 protein levels were quantified in response to DMSO or LMI070 treatment in HEK293 cells (FIG. 3A).

luciferase = assay: Luciferase induction in HEK293 cells transfected with switch cassette-luciferase and treated with LMI070; type: cell-based, human; conditions: varying doses of LMI070, 24 h
Source text: FIGS. 1A-1H. Generation of the miniXon cassette and assessment of miniXon control of SaCas9 for in vivo gene editing in liver. a, Cartoon depicting the AAV genome size with the SF3B3-Xon and SF3B3-miniXon cassettes. b, Luciferase induction in HEK293 cells transfected with SF3B3-miniXon-luciferase or SF3B3-Xon-luciferase in response to varying doses of LMI070. All samples are normalized to Renilla luciferase activity and are relative to DMSO treated cells. Data are the mean±s.e.m. of 8 biological replicates (***P<0.001 versus SF3B3.Xon, two-way ANOVA followed by Bonferroni's post hoc test). c, Splicing inclusion assays of the LMI070-induced exon at 100 nM LMI070. Pseudo exon inclusion in the Xon cassette was detected using primers flanking the pseudoexon (left) or by priming within the novel exon sequence (right; 4 technical replicates). d, Experimental design. Mice were injected with AAV8-miniXon-SaCas9 plus AAV8-sgAi14-eGFP (1×10^12 viral genomes, 1:1 ratio) and 2 weeks later dosed with vehicle or LMI070 at 50 mg kg-1 to induce SaCas9 expression and editing of the loxP-STOP cassette (guides: sgA14_1: 5′-[…]-3′, sgAi14_2: 5′-[…]-3′). One week later, mice were euthanized, and livers processed to assess gene editing by genomic DNA PCR, histology and FACS of isolated hepatocytes. e, Representative FACS analysis of hepatocytes obtained from Ai14 mice after LMI070 or vehicle treatment. The gating/sorting strategy (above), and the percentage of tdTomato expressing cells for each condition (below) is shown (4 biological replicates). f, Representative photomicrographs of liver sections obtained from AAV injected Ai14 mice 1-week after LMI070 treatment. tdTomato expression (red) is evident in LMI070 treated mice (5 mice per group; scale bars, 100 μm). g, SaCas9 mediated editing of the loxP-STOP cassette in Ai14 mice as detected by PCR assay of liver genomic DNA (3 of 5 mice with guides plus LMI, 2 of 4 mice with guides plus vehicle, 1 of 2 untreated mice are shown). […] The sequence shown is represented in SEQ ID NO: 29.
FIG. 2. Comparison of the miniX^on, SF3B3.miniXS3B (miniXS3B), and SF3B3.miniXS3B2 (miniXS3B2) systems for luciferase induction. To increase expression and induction of the miniXon cassette in response to LMI070, the kozak sequence within the LMI070 induced translation initiation exon was optimized, and splice sites located within the upstream and downstream intron eliminated. […]
To test these switches, the cassettes were cloned upstream of luciferase or cDNA. HEK293 cells were transfected with the candidate cassettes, treated with LMI070, and luciferase activity expression determined 24 h later.

| Molecule | Editing of the loxP-STOP cassette (genomic DNA PCR, 355 bp product, Sanger sequencing) (loxP-STOP cassette; Ai14 mice liver) | tdTomato expression in hepatocytes / liver sections (loxP-STOP cassette; Ai14 mice, AAV8-miniXon-SaCas9 plus AAV8-sgAi14-eGFP i.v.) | SaCas9 protein level, DMSO treated cells (SaCas9) | SaCas9 protein levels relative to SF3B3.miniXon cassette (SaCas9) | SaCas9 protein induction after LMI070 treatment (SaCas9) | Luciferase induction relative to X^on and miniX^on (luciferase) | Protein levels (luciferase) relative to SF3B3.miniX^on cassette (luciferase) |
| --- | --- | --- | --- | --- | --- | --- | --- |
| CC1(C)CC(Oc2ccc(-c3ccc(-c4cn[nH]c4)cc3O)nn2)CC(C)(C)N1 [LMI070, 5-(1H-Pyrazol-4-yl)-2-(6-((2,2,6,6-tetramethylpiperidin-4-yl)oxy)pyridazin-3-yl) phenol] | observed | evident |  |  |  |  |  |
| B1 |  |  | almost undetectable | higher | evident | improved induction relative to X^on and miniX^on | higher protein levels relative to the previous SF3B3.miniX^on cassette |
| B2 |  |  | almost undetectable | higher | evident | improved induction relative to X^on and miniX^on | higher protein levels relative to the previous SF3B3.miniX^on cassette |
